Experimental data taken from paper PMC2408616, “Modular Organization and Combinatorial Energetics of Proline–Tyrosine Nuclear Localization Signals” (PLoS Biology, 2008).
Where no end group is shown, it is not given here. MBP = not defined here

Columns and labels:
Kap104p = target: T1, Kap104p (yeast (S. cerevisiae), UniProt P38217 1-918); experiment: ITC; 90–350 μM MBP-NLS titrated into 9–35 μM Kap104p in the cell; 20 °C; 20 mM Tris pH 7.5, 100 mM NaCl, 2 mM β-mercaptoethanol, 10% glycerol; 35 injections of 8 μl; single-site model; settings: both partners purified
T1 construct: Kap104p, yeast homolog of Kapβ2; gene a gift from J. Aitchison, subcloned into pGEX-Tev; also called yeast Karyopherin β2 homolog; source: E. coli Rosetta(DE3)pLysS, purified (glutathione sepharose, TEV cleavage, anion exchange, gel filtration)
T1 sequence (looked up): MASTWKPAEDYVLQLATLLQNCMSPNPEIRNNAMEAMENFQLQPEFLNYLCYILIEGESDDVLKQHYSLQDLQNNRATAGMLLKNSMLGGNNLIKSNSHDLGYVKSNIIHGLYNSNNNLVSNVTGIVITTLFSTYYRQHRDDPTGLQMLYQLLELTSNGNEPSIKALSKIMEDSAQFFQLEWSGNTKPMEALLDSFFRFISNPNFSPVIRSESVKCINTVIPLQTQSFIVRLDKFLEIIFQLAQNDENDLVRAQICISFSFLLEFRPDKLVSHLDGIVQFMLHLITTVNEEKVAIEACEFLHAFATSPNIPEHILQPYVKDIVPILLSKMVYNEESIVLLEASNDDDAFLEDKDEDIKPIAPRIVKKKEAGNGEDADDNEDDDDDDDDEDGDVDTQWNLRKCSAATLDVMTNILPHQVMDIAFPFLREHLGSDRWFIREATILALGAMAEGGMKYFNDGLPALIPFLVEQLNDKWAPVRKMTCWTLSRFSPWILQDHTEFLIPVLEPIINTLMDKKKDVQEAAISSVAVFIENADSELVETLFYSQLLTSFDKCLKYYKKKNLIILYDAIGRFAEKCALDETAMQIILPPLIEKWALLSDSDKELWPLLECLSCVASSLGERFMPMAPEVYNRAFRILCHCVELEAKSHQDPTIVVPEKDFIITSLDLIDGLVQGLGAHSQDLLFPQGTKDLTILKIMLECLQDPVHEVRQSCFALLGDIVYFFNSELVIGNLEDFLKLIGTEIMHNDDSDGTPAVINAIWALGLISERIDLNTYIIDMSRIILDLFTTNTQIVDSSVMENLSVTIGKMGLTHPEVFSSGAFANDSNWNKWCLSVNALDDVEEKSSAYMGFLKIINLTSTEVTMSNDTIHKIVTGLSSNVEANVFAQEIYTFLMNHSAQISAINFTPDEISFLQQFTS

Kap104p, P38217 = target: T2, Kap104p, P38217; experiment: ITC; settings: for ddG / ratio to parent: chain shown with the change; for other: TΔS / Kd / other: ΔH / dG: chain shown with the change;; for other: TΔS: parent: 0.09 ± 0.7; for Kd: parent: 32 ± 16; for other: ΔH: parent: -10.0 ± 0.5; for dG: parent: -10.1 ± 0.3
T2 chain: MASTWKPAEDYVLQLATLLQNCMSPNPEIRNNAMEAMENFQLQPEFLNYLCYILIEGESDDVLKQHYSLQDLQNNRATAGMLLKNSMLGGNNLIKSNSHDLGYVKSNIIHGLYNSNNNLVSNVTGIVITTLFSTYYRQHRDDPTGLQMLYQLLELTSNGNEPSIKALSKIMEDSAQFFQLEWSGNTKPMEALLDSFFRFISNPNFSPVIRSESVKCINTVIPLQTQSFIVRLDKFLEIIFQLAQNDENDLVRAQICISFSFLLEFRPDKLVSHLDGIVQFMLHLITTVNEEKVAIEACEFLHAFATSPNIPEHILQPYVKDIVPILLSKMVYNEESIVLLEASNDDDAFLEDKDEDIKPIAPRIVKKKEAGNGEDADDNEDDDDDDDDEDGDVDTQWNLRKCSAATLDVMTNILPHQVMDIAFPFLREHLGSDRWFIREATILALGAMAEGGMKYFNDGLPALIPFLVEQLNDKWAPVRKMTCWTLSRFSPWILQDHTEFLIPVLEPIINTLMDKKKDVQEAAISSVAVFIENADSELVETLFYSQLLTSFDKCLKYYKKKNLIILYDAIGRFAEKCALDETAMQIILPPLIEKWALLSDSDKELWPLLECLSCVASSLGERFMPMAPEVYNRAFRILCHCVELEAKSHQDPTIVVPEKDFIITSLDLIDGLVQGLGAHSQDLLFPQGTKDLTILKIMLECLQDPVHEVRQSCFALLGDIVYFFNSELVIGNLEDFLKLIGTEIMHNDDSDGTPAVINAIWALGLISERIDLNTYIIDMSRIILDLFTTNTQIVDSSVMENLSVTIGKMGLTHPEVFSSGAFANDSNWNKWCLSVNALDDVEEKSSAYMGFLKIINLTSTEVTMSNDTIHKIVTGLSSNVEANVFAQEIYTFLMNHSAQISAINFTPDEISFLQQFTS

B1: MBP–Hrp1p NLS (domain or fragment, S. cerevisiae, UniProt Q99383 494-534, looked up)
chain: RDRNDRDRDYNHRSGGNHRRNGRGGRGGYNRRNNGYHPYNR
notes: Hrp1p NLS, residues 494-534; also called Hrp1p NLS wild type; source: E. coli BL21(DE3), purified (amylose resin, cation exchange)
Binder B1 has a Kd (Kap104p) of 32 nM.

B2: MBP–Hrp1p NLS 512RRNG515/AAAA (domain or fragment, S. cerevisiae, UniProt Q99383 494-534, looked up)
chain: RDRNDRDRDYNHRSGGNHAAAARGGRGGYNRRNNGYHPYNR
notes: Hrp1p NLS, residues 494-534; source: E. coli BL21(DE3), purified (amylose resin, cation exchange)
Binder B2 has a ddG (Kap104p, P38217) of 0.2 kcal/mol, a ratio to parent (Kap104p, P38217) of 1.5 and an other: TΔS (Kap104p, P38217) of 1.5 kcal/mol/K. For the same binder, the Kd (Kap104p, P38217) was 48 nM, the other: ΔH (Kap104p, P38217) was -8.3 kcal/mol and the dG (Kap104p, P38217) was -9.8 kcal/mol. B2: binds (Kap104p).

B3: MBP–Hrp1p NLS Y532M (domain or fragment, S. cerevisiae, UniProt Q99383 494-534, looked up)
chain: RDRNDRDRDYNHRSGGNHRRNGRGGRGGYNRRNNGYHPMNR
notes: as for B2
Binder B3 has a Kd (Kap104p) of 2000 nM.

B4: MBP–Hrp1p NLS 516RGG518/AAA (domain or fragment, S. cerevisiae, UniProt Q99383 494-534, looked up)
chain: RDRNDRDRDYNHRSGGNHRRNGAAARGGYNRRNNGYHPYNR
notes: as for B2
Binder B4 has a ddG (Kap104p, P38217) of -0.3 kcal/mol, a ratio to parent (Kap104p, P38217) of 0.7 and an other: TΔS (Kap104p, P38217) of 2 kcal/mol/K. It also gave a Kd (Kap104p, P38217) of 24 nM, an other: ΔH (Kap104p, P38217) of -8.3 kcal/mol and a dG (Kap104p, P38217) of -10.3 kcal/mol. B4: binds (Kap104p).

B5: MBP–Hrp1p NLS Y532F (domain or fragment, S. cerevisiae, UniProt Q99383 494-534, looked up)
chain: RDRNDRDRDYNHRSGGNHRRNGRGGRGGYNRRNNGYHPFNR
notes: as for B2
In the case of B5, the “fold decrease in affinity against wild type” value (“fold decrease in affinity” for short) (Kap104p) is reported as 4 fold.

B6: MBP–Hrp1p NLS 531PY532/AA (domain or fragment, S. cerevisiae, UniProt Q99383 494-534, looked up)
chain: {MBP}-RDRNDRDRDYNHRSGGNHRRNGRGGRGGYNRRNNGYHAANR
modifications: reading uncertain
notes: as for B2
B6 gave a Kd (Kap104p) of over 10000 nM.

B7: MBP–Hrp1p NLS 506RSGG509/AAAA (domain or fragment, S. cerevisiae, UniProt Q99383 494-534, looked up)
chain: RDRNDRDRDYNHAAAANHRRNGRGGRGGYNRRNNGYHPYNR
notes: as for B2
With B7 the ddG (Kap104p, P38217) was 0.02 kcal/mol, the ratio to parent (Kap104p, P38217) was 1.3 and the other: TΔS (Kap104p, P38217) was -2.6 kcal/mol/K. The Kd (Kap104p, P38217) was 42 nM, the other: ΔH (Kap104p, P38217) was -12.6 kcal/mol and the dG (Kap104p, P38217) was -10 kcal/mol. B7: binds (Kap104p).

B8: MBP–Hrp1p NLS Y532H (domain or fragment, S. cerevisiae, UniProt Q99383 494-534, looked up)
chain: RDRNDRDRDYNHRSGGNHRRNGRGGRGGYNRRNNGYHPHNR
notes: as for B2
B8 was tested, and the Kd (Kap104p) was 1000 nM.

B9: MBP–Nab2p NLS (domain or fragment, S. cerevisiae, UniProt P32505 201-251, looked up)
chain: DNSQRFTQRGGGAVGKNRRGGRGGNRGGRNNNSTRFNPLAKALGMAGESNM
notes: Nab2p NLS, residues 201-251 (methods; the results say 201-250); also called Nab2p NLS wild type; source: E. coli BL21(DE3), purified (amylose resin, cation exchange)
B9 showed a Kd (Kap104p) of 37 nM.

B10: MBP–Nab2p NLS L239D (domain or fragment, S. cerevisiae, UniProt P32505 201-251, looked up)
chain: DNSQRFTQRGGGAVGKNRRGGRGGNRGGRNNNSTRFNPDAKALGMAGESNM
notes: Nab2p NLS, residues 201-251; source: E. coli BL21(DE3), purified (amylose resin, cation exchange)
For B10, the “fold decrease in affinity” value (Kap104p) was 11 fold.

B11: MBP–Nab2p NLS L239I (domain or fragment, S. cerevisiae, UniProt P32505 201-251, looked up)
chain: DNSQRFTQRGGGAVGKNRRGGRGGNRGGRNNNSTRFNPIAKALGMAGESNM
notes: as for B10
B11: binds (Kap104p).

B12: MBP–Nab2p NLS F236A (domain or fragment, S. cerevisiae, UniProt P32505 201-251, looked up)
chain: DNSQRFTQRGGGAVGKNRRGGRGGNRGGRNNNSTRANPLAKALGMAGESNM
notes: as for B10
With B12 the “KD,mutant/KD,wild type” value (Kap104p) was 8.

B13: MBP–Nab2p NLS F236L (domain or fragment, S. cerevisiae, UniProt P32505 201-251, looked up)
chain: DNSQRFTQRGGGAVGKNRRGGRGGNRGGRNNNSTRLNPLAKALGMAGESNM
notes: as for B10
B13: binds (Kap104p).

B14: MBP–Nab2p NLS L239E (domain or fragment, S. cerevisiae, UniProt P32505 201-251, looked up)
chain: DNSQRFTQRGGGAVGKNRRGGRGGNRGGRNNNSTRFNPEAKALGMAGESNM
notes: as for B10
B14 was tested, and the “fold decrease in affinity” value (Kap104p) was 7 fold.

B15: MBP–Nab2p NLS R226A (domain or fragment, S. cerevisiae, UniProt P32505 201-251, looked up)
chain: DNSQRFTQRGGGAVGKNRRGGRGGNAGGRNNNSTRFNPLAKALGMAGESNM
notes: as for B10
B15 was tested, and the “KD,mutant/KD,wild type” value (Kap104p) was about 1.

B16: MBP–Nab2p NLS L239R (domain or fragment, S. cerevisiae, UniProt P32505 201-251, looked up)
chain: DNSQRFTQRGGGAVGKNRRGGRGGNRGGRNNNSTRFNPRAKALGMAGESNM
notes: Nab2p NLS, residues 201-251; also called L239 to R; source: E. coli BL21(DE3), purified (amylose resin, cation exchange)
B16: binds (Kap104p).

B17: MBP–Nab2p NLS R229A (domain or fragment, S. cerevisiae, UniProt P32505 201-251, looked up)
chain: DNSQRFTQRGGGAVGKNRRGGRGGNRGGANNNSTRFNPLAKALGMAGESNM
notes: as for B10
For B17, the “KD,mutant/KD,wild type” value (Kap104p) was about 1.

B18: MBP–Nab2p NLS L239F (domain or fragment, S. cerevisiae, UniProt P32505 201-251, looked up)
chain: DNSQRFTQRGGGAVGKNRRGGRGGNRGGRNNNSTRFNPFAKALGMAGESNM
notes: Nab2p NLS, residues 201-251; also called L239 to F; source: E. coli BL21(DE3), purified (amylose resin, cation exchange)
B18: binds (Kap104p).

B19: MBP–Nab2p NLS 238PL239/AA (domain or fragment, S. cerevisiae, UniProt P32505 201-251, looked up)
chain: DNSQRFTQRGGGAVGKNRRGGRGGNRGGRNNNSTRFNAAAKALGMAGESNM
notes: as for B10
For B19, the Kd (Kap104p) was 376 nM.

B20: MBP–Nab2p NLS R235A, 238PL239/AA (domain or fragment, S. cerevisiae, UniProt P32505 201-251, looked up)
chain: DNSQRFTQRGGGAVGKNRRGGRGGNRGGRNNNSTAFNAAAKALGMAGESNM
notes: as for B10
B20 gave a Kd (Kap104p) of 544 nM.
